In the supplement of paper PMC5998384:

Tests used:
HeLa Kyoto [1] = assay: solubility in G1/S (NP-40 vs SDS abundance) (log2 ratio); higher = more soluble; settings: cell cycle stage: G1/S
HeLa Kyoto [2] = assay: solubility change mitosis vs G1/S (difference of NP-40 vs SDS log2 ratios) (log2 ratio difference); higher = more soluble in mitosis
HeLa Kyoto [3] = assay: thermal stability score vs G1/S (z-score of summed log2 fold changes over temperatures); higher = more thermally stable than in G1/S
HeLa Kyoto [4] = assay: melting temperature (median over replicates), in situ; higher = more thermally stable
[5] = cell cycle stage: early G1 (4.5 h after nocodazole release)
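For melting temperature (median over replicates), in situ in this document: HeLa Kyoto cells synchronized by double thymidine or nocodazole block, proteins quantified by TMT10plex mass spectrometry, three independent biological replicates.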
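For solubility change mitosis vs G1/S (difference of NP-40 vs SDS log2 ratios) in this document: synchronized HeLa Kyoto cells (double thymidine block for G1/S, nocodazole release for mitosis), protein amounts in NP-40 versus SDS lysates quantified by mass spectrometry, three biological replicates.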
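For solubility in G1/S (NP-40 vs SDS abundance) in this document: HeLa Kyoto cells arrested at G1/S by double thymidine block, proteins quantified by TMT10plex mass spectrometry in mild NP-40 versus SDS extracts, three biological replicates.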
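For thermal stability score vs G1/S (z-score of summed log2 fold changes over temperatures) in this document: synchronized HeLa Kyoto cells, proteins quantified by TMT10plex mass spectrometry, three biological replicates, mitosis taken 0.5 h after nocodazole release, G1/S directly after double thymidine block.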

Row | Substance | solubility in G1/S (log2) (HeLa Kyoto [1]) | solubility change mitosis (log2) (HeLa Kyoto [2]) | thermal stability score (HeLa Kyoto [3]; [5]) | thermal stability score (HeLa Kyoto [3]; cell cycle stage: mitosis) | melting temperature (HeLa Kyoto [4]; cell cycle stage: G1/S) [°C] | melting temperature (HeLa Kyoto [4]; cell cycle stage: mitosis) [°C]
1 | URB2 | -1.43 | 0.744 | 1.35 | 1.43 | – | –
2 | MLPRRLLAAWLAGTRGGGLLALLANQCRFVTGLRVRRAQQIAQLYGRLYSESSRRVLLGRLWRRLHGRPGHASALMAALAGVFVWDEERIQEEELQRSINEMKRLEEMSNMFQSSGVQHHPPEPKAQTEGNEDSEGKEQRWEMVMDKKHFKLWRRPITGTHLYQYRVFGTYTDVTPRQFFNVQLDTEYRKKWDALVIKLEVIERDVVSGSEVLHWVTHFPYPMYSRDYVYVRRYSVDQENNMMVLVSRAVEHPSVPESPEFVRVRSYESQMVIRPHKSFDENGFDYLLTYSDNPQTVFPRYCVSWMVSSGMPDFLEKLHMATLKAKNMEIKVKDYISAKPLEMSSEAKATSQSSERKNEGSCGPARIEYA [STARD7] | 0.128 | -0.155 | -1.31 | -0.89 | – | –
3 | MPLELTQSRVQKIWVPVDHRPSLPRSCGPKLTNSPTVIVMVGLPARGKTYISKKLTRYLNWIGVPTKVFNVGEYRREAVKQYSSYNFFRPDNEEAMKVRKQCALAALRDVKSYLAKEGGQIAVFDATNTTRERRHMILHFAKENDFKAFFIESVCDDPTVVASNIMEVKISSPDYKDCNSAEAMDDFMKRISCYEASYQPLDPDKCDRDLSLIKVIDVGRRFLVNRVQDHIQSRIVYYLMNIHVQPRTIYLCRHGENEHNLQGRIGGDSGLSSRGKKFASALSKFVEEQNLKDLRVWTSQLKSTIQTAEALRLPYEQWKALNEIDAGVCEELTYEEIRDTYPEEYALREQDKYYYRYPTGESYQDLVQRLEPVIMELERQENVLVICHQAVLRCLLAYFLDKSAEEMPYLKCPLHTVLKLTPVAYGCRVESIYLNVESVCTHRERSEDAKKGPNPLMRRNSVTPLASPEPTKKPRINSFEEHVASTSAALPSCLPPEVPTQLPGQNMKGSRSSADSSRKH [PFKFB3] | 0.239 | -0.103 | 2.73 | 0.713 | – | –
4 | MPPKTPRKTAATAAAAAAEPPAPPPPPPPEEDPEQDSGPEDLPLVRLEFEETEEPDFTALCQKLKIPDHVRERAWLTWEKVSSVDGVLGGYIQKKKELWGICIFIAAVDLDEMSFTFTELQKNIEISVHKFFNLLKEIDTSTKVDNAMSRLLKKYDVLFALFSKLERTCELIYLTQPSSSISTEINSALVLKVSWITFLLAKGEVLQMEDDLVISFQLMLCVLDYFIKLSPPMLLKEPYKTAVIPINGSPRTPRRGQNRSARIAKQLENDTRIIEVLCKEHECNIDEVKNVYFKNFIPFMNSLGLVTSNGLPEVENLSKRYEEIYLKNKDLDARLFLDHDKTLQTDSIDSFETQRTPRKSNLDEEVNVIPPHTPVRTVMNTIQQLMMILNSASDQPSENLISYFNNCTVNPKESILKRVKDIGYIFKEKFAKAVGQGCVEIGSQRYKLGVRLYYRVMESMLKSEEERLSIQNFSKLLNDNIFHMSLLACALEVVMATYSRSTSQNLDSGTDLSFPWILNVLNLKAFDFYKVIESFIKAEGNLTREMIKHLERCEHRIMESLAWLSDSPLFDLIKQSKDREGPTDHLESACPLNLPLQNNHTAADMYLSPVRSPKKKGSTTRVNSTANAETQATSAFQTQKPLKSTSLSLFYKKVYRLAYLRLNTLCERLLSEHPELEHIIWTLFQHTLQNEYELMRDRHLDQIMMCSMYGICKVKNIDLKFKIIVTAYKDLPHAVQETFKRVLIKEEEYDSIIVFYNSVFMQRLKTNILQYASTRPPTLSPIPHIPRSPYKFPSSPLRIPGGNIYISPLKSPYKISEGLPTPTKMTPRSRILVSIGESFGTSEKFQKINQMVCNSDRVLKRSAEGSNPPKPLKKLRFDIEGSDEADGSKHLPGESKFQQKLAEMTSTRTRMQKQKMNDSMDTSNKEEK [RB1] | 0.147 | -0.0546 | 0.441 | 2.18 | – | –
5 | MVDRLANSEANTRRISIVENCFGAAGQPLTIPGRVLIGEGVLTKLCRKKPKARQFFLFNDILVYGNIVIQKKKYNKQHIIPLENVTIDSIKDEGDLRNGWLIKTPTKSFAVYAATATEKSEWMNHINKCVTDLLSKSGKTPSNEHAAVWVPDSEATVCMRCQKAKFTPVNRRHHCRKCGFVVCGPCSEKRFLLPSQSSKPVRICDFCYDLLSAGDMATCQPARSDSYSQSLKSPLNDMSDDDDDDDSSD [PLEKHF2] | 0.163 | -0.0311 | 0.212 | 0.829 | – | –
6 | MKLVNIWLLLLVVLLCGKKHLGDRLEKKSFEKAPCPGCSHLTLKVEFSSTVVEYEYIVAFNGYFTAKARNSFISSALKSSEVDNWRIIPRNNPSSDYPSDFEVIQIKEKQKAGLLTLEDHPNIKRVTPQRKVFRSLKYAESDPTVPCNETRWSQKWQSSRPLRRASLSLGSGFWHATGRHSSRRLLRAIPRQVAQTLQADVLWQMGYTGANVRVAVFDTGLSEKHPHFKNVKERTNWTNERTLDDGLGHGTFVAGVIASMRECQGFAPDAELHIFRVFTNNQVSYTSWFLDAFNYAILKKIDVLNLSIGGPDFMDHPFVDKVWELTANNVIMVSAIGNDGPLYGTLNNPADQMDVIGVGGIDFEDNIARFSSRGMTTWELPGGYGRMKPDIVTYGAGVRGSGVKGGCRALSGTSVASPVVAGAVTLLVSTVQKRELVNPASMKQALIASARRLPGVNMFEQGHGKLDLLRAYQILNSYKPQASLSPSYIDLTECPYMWPYCSQPIYYGGMPTVVNVTILNGMGVTGRIVDKPDWQPYLPQNGDNIEVAFSYSSVLWPWSGYLAISISVTKKAASWEGIAQGHVMITVASPAETESKNGAEQTSTVKLPIKVKIIPTPPRSKRVLWDQYHNLRYPPGYFPRDNLRMKNDPLDWNGDHIHTNFRDMYQHLRSMGYFVEVLGAPFTCFDASQYGTLLMVDSEEEYFPEEIAKLRRDVDNGLSLVIFSDWYNTSVMRKVKFYDENTRQWWMPDTGGANIPALNELLSVWNMGFSDGLYEGEFTLANHDMYYASGCSIAKFPEDGVVITQTFKDQGLEVLKQETAVVENVPILGLYQIPAEGGGRIVLYGDSNCLDDSHRQKDCFWLLDALLQYTSYGVTPPSLSHSGNRQRPPSGAGSVTPERMEGNHLHRYSKVLEAHLGDPKPRPLPACPRLSWAKPQPLNETAPSNLWKHQKLLSIDLDKVVLPNFRSNRPQVRPLSPGESGAWDIPGGIMPGRYNQEVGQTIPVFAFLGAMVVLAFFVVQINKAKSRPKRRKPRVKRPQLMQQVHPPKTPSV [MBTPS1] | 0.0339 | -0.198 | -1.77 | -1.37 | – | –
7 | METRYNLKSPAVKRLMKEAAELKDPTDHYHAQPLEDNLFEWHFTVRGPPDSDFDGGVYHGRIVLPPEYPMKPPSIILLTANGRFEVGKKICLSISGHHPETWQPSWSIRTALLAIIGFMPTKGEGAIGSLDYTPEERRALAKKSQDFCCEGCGSAMKDVLLPLKSGSDSSQADQEAKELARQISFKAEVNSSGKTISESDLNHSFSLTDLQDDIPTTFQGATASTSYGLQNSSAASFHQPTQPVAKNTSMSPRQRRAQQQSQRRLSTSPDVIQGHQPRDNHTDHGGSAVLIVILTLALAALIFRRIYLANEYIFDFEL [UBE2J1] | 0.222 | 0.00691 | -0.0441 | 1.77 | – | –
8 | MGDEKDSWKVKTLDEILQEKKRRKEQEEKAEIKRLKNSDDRDSKRDSLEEGELRDHRMEITIRNSPYRREDSMEDRGEEDDSLAIKPPQQMSRKEKAHHRKDEKRKEKRRHRSHSAEGGKHARVKEKEREHERRKRHREEQDKARREWERQKRREMAREHSRRERDRLEQLERKRERERKMREQQKEQREQKERERRAEERRKEREARREVSAHHRTMREDYSDKVKASHWSRSPPRPPRERFELGDGRKPGEARPAPAQKPAQLKEEKMEERDLLSDLQDISDSERKTSSAESSSAESGSGSEEEEEEEEEEEEEGSTSEESEEEEEEEEEEEEETGSNSEEASEQSAEEVSEEEMSEDEERENENHLLVVPESRFDRDSGESEEAEEEVGEGTPQSSALTEGDYVPDSPALSPIELKQELPKYLPALQGCRSVEEFQCLNRIEEGTYGVVYRAKDKKTDEIVALKRLKMEKEKEGFPITSLREINTILKAQHPNIVTVREIVVGSNMDKIYIVMNYVEHDLKSLMETMKQPFLPGEVKTLMIQLLRGVKHLHDNWILHRDLKTSNLLLSHAGILKVGDFGLAREYGSPLKAYTPVVVTLWYRAPELLLGAKEYSTAVDMWSVGCIFGELLTQKPLFPGKSEIDQINKVFKDLGTPSEKIWPGYSELPAVKKMTFSEHPYNNLRKRFGALLSDQGFDLMNKFLTYFPGRRISAEDGLKHEYFRETPLPIDPSMFPTWPAKSEQQRVKRGTSPRPPEGGLGYSQLGDDDLKETGFHLTTTNQGASAAGPGFSLKF [CDC2L1] | -0.672 | 0.114 | – | – | 46.5 | 50.3
9 | MHQPPESTAAAAAAADISARKMAHPAMFPRRGSGSGSASALNAAGTGVGSNATSSEDFPPPSLLQPPPPAASSTSGPQPPPPQSLNLLSQAQLQAQPLAPGGTQMKKKSGFQITSVTPAQISASISSNNSIAEDTESYDDLDESHTEDLSSSEILDVSLSRATDLGEPERSSSEETLNNFQEAETPGAVSPNQPHLPQPHLPHLPQQNVVINGNAHPHHLHHHHQIHHGHHLQHGHHHPSHVAVASASITGGPPSSPVSRKLSTTGSSDSITPVAPTSAVSSSGSPASVMTNMRAPSTTGGIGINSVTGTSTVNNVNITAVGSFNPNVTSSMLGNVNISTSNIPSAAGVSVGPGVTSGVNVNILSGMGNGTISSSAAVSSVPNAAAGMTGGSVSSQQQQPTVNTSRFRVVKLDSSSEPFKKGRWTCTEFYEKENAVPATEGVLINKVVETVKQNPIEVTSERESTSGSSVSSSVSTLSHYTESVGSGEMGAPTVVVQQQQQQQQQQQQQPALQGVTLQQMDFGSTGPQSIPAVSIPQSISQSQISQVQLQSQELSYQQKQGLQPVPLQATMSAATGIQPSPVNVVGVTSALGQQPSISSLAQPQLPYSQAAPPVQTPLPGAPPPQQLQYGQQQPMVSTQMAPGHVKSVTQNPASEYVQQQPILQTAMSSGQPSSAGVGAGTTVIPVAQPQGIQLPVQPTAVPAQPAGASVQPVGQAPAAVSAVPTGSQIANIGQQANIPTAVQQPSTQVPPSVIQQGAPPSSQVVPPAQTGIIHQGVQTSAPSLPQQLVIASQSSLLTVPPQPQGVEPVAQGIVSQQLPAVSSLPSASSISVTSQVSSTGPSGMPSAPTNLVPPQNIAQTPATQNGNLVQSVSQPPLIATNTNLPLAQQIPLSSTQFSAQSLAQAIGSQIEDARRAAEPSLVGLPQTISGDSGGMSAVSDGSSSSLAASASLFPLKVLPLTTPLVDGEDESSSGASVVAIDNKIEQAMDLVKSHLMYAVREEVEVLKEQIKELIEKNSQLEQENNLLKTLASPEQLAQFQAQLQTGSPPATTQPQGTTQPPAQPASQGSGPTA [TSC22D1] | -0.382 | -0.0765 | – | – | 54.4 | 53.1
10 | SRCAP | -0.24 | 0.0318 | – | – | 48.8 | 50.3
11 | MRLAGPLRIVVLVVSVGVTWIVVSILLGGPGSGFPRIQQLFTSPESSVTAAPRARKYKCGLPQPCPEEHLAFRVVSGAANVIGPKICLEDKMLMSSVKDNVGRGLNIALVNGVSGELIEARAFDMWAGDVNDLLKFIRPLHEGTLVFVASYDDPATKMNEETRKLFSELGSRNAKELAFRDSWVFVGAKGVQNKSPFEQHVKNSKHSNKYEGWPEALEMEGCIPRRSTAS [FAM3A] | -0.0403 | -0.0146 | – | – | 51.9 | 52.8
